Experimental data as given in the supplement of paper PMC10567573.
± gives the standard deviation.

Assay: protein stability index of a GFP-peptide fusion (GPS, HEK-293T) (PSI 1-6); higher = more stable
[1] = treatment: DMSO, c terminus: a fixed tail appended
[2] = treatment: MLN4924 1 uM, 8 h, c terminus: a fixed tail appended
[3] = treatment: DMSO, c terminus: native
[4] = treatment: MLN4924 1 uM, 8 h, c terminus: native
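Further: 24-mer peptide tiles fused after GFP, lentivirally expressed, FACS-sorted into six equal bins by GFP/DsRed ratio, decoded by Illumina sequencing, PSI is the read-weighted mean bin number.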

Sequence	protein stability index [1]	protein stability index [2]	protein stability index [3]	protein stability index [4]
PFKFHMLHSGLVHGLAFWFDVAFI [CARM1]	2.75 ± 0.15	2.97 ± 0.2	–	–
HSKQYRCLSFQPECSMKLTPLVLE [VDR]	2.5 ± 0.29	2.42 ± 0.14	–	–
CSGVACLVKDNPQRSYFLRIFDIK [WASL]	2.16 ± 0.34	2.27 ± 0.7	–	–
VKGMQRIVNQWSEKFSDEGDSDSA [DLC1]	4.68 ± 0.21	5.09 ± 0.29	–	–
ALDNESWGFVHPRLLSVPELCHHV [RETREG3]	2.65 ± 0.42	2.46 ± 0.23	–	–
MVDIIFHYPFLGAMGDHSKKKPGT [ISL2]	2.34 ± 0.28	2.38 ± 0.61	–	–
GYSWSMGAYKSSTICYCPEKGTWT [KLHL14]	2.03 ± 0.26	2.08 ± 0.34	–	–
GRWLRSTRFSGSLDRLRETRVAD [PCDHGC5]	–	–	2.62 ± 0.48	2.84 ± 0.14
QEAEEPKARVLRSKSLCHDEIENL [CDC25B]	5.37 ± 0.089	5.57 ± 0.23	–	–
DKDKSPESHKAKNESWIKSHFSRL [C10orf62]	3.46 ± 0.25	3.48 ± 0.31	–	–
GDQDPLSKIPFKILSGHEHAVSTC [WDR88]	3.31 ± 0.23	3.78 ± 0.16	–	–
TNEWEKRLSTSPVRLAARQEDAPM [EPB41L3]	4.83 ± 0.16	4.51 ± 0.44	–	–
HRNLSQLPNFAFSVPLAYFLLSQQ [TCF25]	2.26 ± 0.56	2.65 ± 0.26	–	–
MTVMSGENVDEASAAPGHPQDGSY [KCNA1]	5.37 ± 0.21	5.12 ± 0.14	–	–
GLPGAEGVEPAPWAQLEAPARLLL [FANCE]	3.33 ± 0.45	3.3 ± 0.05	–	–
VYRFVCDLQNLLGFTPEELHAILG [ETS2]	2.21 ± 0.41	2.19 ± 0.11	–	–
KAQQEFAAGVFSNPAVRTAAANAA [SCAMP3]	4.13 ± 0.11	4.11 ± 0.24	–	–
INVYGNTALHIACYNGQDAVVNEL [ANKRD44]	2.06 ± 0.16	2.23 ± 0.16	–	–
ALILHQRIHSGEKPYGCVECGKAF [ZNF24]	2.17 ± 0.052	2.5 ± 0.4	–	–
GFWEEERPFWEEEKTFWKEEKSFW [CCDC70]	2.85 ± 0.35	3.274 ± 0.027	–	–
INRTFFFDVHPPLGKMLIGLAGYL [POMT2]	3.07 ± 0.57	2.6 ± 0.59	–	–
KIIREIDFYREDEDEEEEEGGEGE [TRIM55]	5.18 ± 0.26	5.06 ± 0.24	–	–

Sequence	protein stability index [1]	protein stability index [2]	protein stability index [3]	protein stability index [4]
YILLVGYPPFWDEDQHKLYQQIKA [CAMK2B]	2.49 ± 0.57	2.82 ± 0.56	–	–
PAPPPPAGGATAWGDLLGEDSLAA [SNAP91]	5.13 ± 0.22	5.11 ± 0.13	–	–
TNHGYRVQVENPERFSSAPCLLGS [TRIM35]	3.4 ± 0.17	3.29 ± 0.31	–	–
NSSQLLLRRHAGLLDGLARRVGIL [SCARA5]	2.72 ± 0.027	2.69 ± 0.28	–	–
KVKVPQKTAGKENHFDMHRVGKWH [ZNF75A]	2.87 ± 0.45	3.43 ± 0.51	–	–
MAALNSQTAVQFQQYAAQQYPGNY [ACBD3]	3.09 ± 0.38	3.16 ± 0.1	–	–
VFPETAFIAVTSYQNHKITQLKIE [TBX5]	2.22 ± 0.35	2.21 ± 0.32	–	–
ALELLGATFVDKKRDLLGALKYWK [FEM1C]	2.25 ± 0.37	2.52 ± 0.86	–	–
GNNLLVFGGTGIPFGESNGNGVHV [KLHDC10]	2.66 ± 0.36	2.71 ± 0.41	–	–
SMIQEQFKKGKNPTGLLALQQIAD [ADD1]	3.08 ± 0.18	3.17 ± 0.32	–	–
DLEAKEVTPRTALLTWTEPPVRPA [TNXB]	4.61 ± 0.14	4.53 ± 0.23	–	–
LVSGSQSALGPPPAASNSSDLFDL [CLINT1]	4.43 ± 0.24	4.34 ± 0.18	–	–
DEIRWKYHSDTTPKIIESQRPPH [IQUB]	–	–	4.25 ± 0.36	4.09 ± 0.29
IYVIGGYDGRSRLSSVECLDYTAD [KLHL12]	2.86 ± 0.46	2.63 ± 0.41	–	–
YSFVLTNRGNSAGGLQHRVTAKTA [PTPRD]	2.81 ± 0.29	2.97 ± 0.28	–	–
MQIAVPCAFLLLRLLVGLALATLR [TMEM175]	2.46 ± 0.28	2.26 ± 0.17	–	–
DLAYQLQVAKTKQQIEEQRVQVQV [FLOT1]	3.4 ± 0.19	3.73 ± 0.22	–	–
PWKKCCFSGDGEYIVAGSARQHAL [RBBP5]	2.14 ± 0.27	2.36 ± 0.22	–	–
EFIQEIRRQLEACQRERAFSVKFE [OAS1]	2.29 ± 0.31	2.27 ± 0.56	–	–
QPGLSFLNLGSGTGYLSSMVGLIL [PCMTD2]	2.12 ± 0.15	2.28 ± 0.27	–	–
KGKLMVCYETLPRGQCLLYNWEEE [SPAG8]	2.55 ± 0.32	2.7 ± 0.34	–	–
PQQTWASPAEVVDLTLDEDSRRKY [C18orf25]	5.1 ± 0.3	5.13 ± 0.14	–	–

Sequence	protein stability index [1]	protein stability index [2]	protein stability index [3]	protein stability index [4]
EIIPINVNNNYEHRHTSHLGHAVL [SPRY1]	2.34 ± 0.15	2.43 ± 0.3	–	–
LAMNYKHGDPIPKVEFTEEEIKTW [TPH1]	4.21 ± 0.33	4.35 ± 0.24	–	–
YAHQPRTADEIPMEPGDIIGVAGN [FUT8]	4.2 ± 0.24	4.36 ± 0.17	–	–
GFDTDGLSSAVWPGGETEALTRLE [CRY1]	4.54 ± 0.73	4.76 ± 0.29	–	–
RLCTWLLALSPDLSLSNATVLTRS [FANCE]	2.92 ± 0.47	3.02 ± 1	–	–
GDWLLTANGSEIHKHVHFSSSFTS [SLC22A15]	2.59 ± 0.25	2.49 ± 0.36	–	–
YHEAPMTRKHYQVTGYGINGTGDS [POMT2]	2.97 ± 0.36	3.42 ± 0.31	–	–
LLSCLSKSNNRLKSLSIQYLELDR [FBXO39]	2.54 ± 0.37	2.01 ± 0.33	–	–
YANLALSGLIEIQSYPLCIYLINQ [SLC22A15]	3.9 ± 0.46	3.34 ± 0.19	–	–
PPPPPGLPSDGDHQVPTTAGNKAA [WASL]	5.46 ± 0.33	5.43 ± 0.12	–	–
DRIATTDDTTAMASASSSATGSFS [MAGEA10]	5.2 ± 0.11	5.28 ± 0.09	–	–
EQVNFCESSNDFGPYEGGGPVAGL [ZBTB22]	4.3 ± 0.16	4.32 ± 0.25	–	–
GSLHAGGARLVAACSAWLCPGLRL [AUH]	–	2.43 ± 0.7	–	–
SERCQRQLQSLCRGLGLGGRRLKS [FANCE]	3.22 ± 0.36	3.49 ± 0.47	–	–
DLDAKIREALVLRSVRVRLLLSFW [PLD5]	3.52 ± 0.33	2.53 ± 0.86	–	–
NSVCSKFRKEIKSKSADNQEYFER [RHOBTB1]	4.26 ± 0.19	4.45 ± 0.32	–	–
PQESAILQLFHQDGTFSPVTLALF [CLCN6]	2.45 ± 0.46	2.42 ± 0.32	–	–
MLEASEWATIEGLVELLQPFKQVA [ZBED1]	2.23 ± 0.76	2.27 ± 0.23	–	–
EDVLLLNFEEMRALLDSLPPPVES [KLHL14]	3.34 ± 0.24	3.57 ± 0.41	–	–
SGSGNRLDGKKKGVEPSPSPIKPG [UFD1]	4.61 ± 0.29	4.72 ± 0.079	–	–
VNIMRTYTYEKLLWTTSRVLKVLS [CTNNB1]	2.18 ± 0.14	2.41 ± 0.67	–	–
